How the values were obtained:
IDP2 = molecular target: T1, IDP2 (Arabidopsis thaliana, UniProt F4JH53 1-635); assay: EMSA; 12.5 mM MgCl2; up to 6.4 ug protein; 25 mM HEPES pH 7.6, 50 mM KCl, 0.1 mM EDTA, 12.5 mM MgCl2, 1 mM DTT, 0.5% BSA, 5% glycerol, 2 ug protein, room temperature 30 min; 4% native PAGE; conditions: protein: recombinant, tags: His (pET28a), label: 5'-32P
T1 sequence: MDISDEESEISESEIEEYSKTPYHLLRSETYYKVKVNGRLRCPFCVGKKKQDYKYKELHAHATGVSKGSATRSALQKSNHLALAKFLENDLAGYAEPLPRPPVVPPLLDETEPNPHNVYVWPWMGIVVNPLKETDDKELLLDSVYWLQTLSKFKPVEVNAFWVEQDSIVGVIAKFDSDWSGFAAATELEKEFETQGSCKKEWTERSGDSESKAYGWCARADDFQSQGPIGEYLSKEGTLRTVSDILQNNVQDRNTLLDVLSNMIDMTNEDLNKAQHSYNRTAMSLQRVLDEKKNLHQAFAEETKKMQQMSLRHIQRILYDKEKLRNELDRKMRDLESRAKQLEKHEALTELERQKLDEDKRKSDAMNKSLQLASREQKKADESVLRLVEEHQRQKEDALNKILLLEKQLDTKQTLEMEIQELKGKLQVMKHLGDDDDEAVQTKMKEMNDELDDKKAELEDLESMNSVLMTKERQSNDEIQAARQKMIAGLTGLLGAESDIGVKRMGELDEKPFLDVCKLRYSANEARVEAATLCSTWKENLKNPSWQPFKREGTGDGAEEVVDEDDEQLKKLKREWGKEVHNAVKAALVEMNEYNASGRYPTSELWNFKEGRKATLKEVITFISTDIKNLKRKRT

IDP1 = molecular target: T2, IDP1 (Arabidopsis thaliana, UniProt Q9S9P3 1-634); assay: as above; conditions: protein: recombinant, tags: His (pET28a), label: 5'-32P
T2 sequence: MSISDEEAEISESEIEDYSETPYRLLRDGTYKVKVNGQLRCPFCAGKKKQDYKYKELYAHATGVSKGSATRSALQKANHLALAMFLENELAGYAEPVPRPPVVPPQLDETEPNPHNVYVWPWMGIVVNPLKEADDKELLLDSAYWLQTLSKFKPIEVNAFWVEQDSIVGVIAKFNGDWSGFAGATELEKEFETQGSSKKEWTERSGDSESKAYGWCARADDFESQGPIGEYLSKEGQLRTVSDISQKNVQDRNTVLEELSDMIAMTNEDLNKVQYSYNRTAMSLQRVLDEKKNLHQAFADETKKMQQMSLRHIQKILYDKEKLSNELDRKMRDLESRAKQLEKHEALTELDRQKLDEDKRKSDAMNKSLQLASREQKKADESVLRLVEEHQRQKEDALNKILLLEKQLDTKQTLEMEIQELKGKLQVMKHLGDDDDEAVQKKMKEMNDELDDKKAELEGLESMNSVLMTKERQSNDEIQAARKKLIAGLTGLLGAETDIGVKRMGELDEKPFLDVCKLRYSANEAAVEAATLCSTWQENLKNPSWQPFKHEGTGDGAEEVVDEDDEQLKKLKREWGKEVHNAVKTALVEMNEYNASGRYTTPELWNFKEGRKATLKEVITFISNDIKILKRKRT

IDN2 = molecular target: T3, IDN2 (Arabidopsis thaliana, UniProt Q8VZ79 1-647); assay: EMSA; 12.5 mM MgCl2; 25 mM HEPES pH 7.6, 50 mM KCl, 0.1 mM EDTA, 12.5 mM MgCl2, 1 mM DTT, 0.5% BSA, 5% glycerol, 2 ug protein, room temperature 30 min; 4% native PAGE; conditions: protein: recombinant, tags: His (pET28a), label: 5'-32P
T3 sequence: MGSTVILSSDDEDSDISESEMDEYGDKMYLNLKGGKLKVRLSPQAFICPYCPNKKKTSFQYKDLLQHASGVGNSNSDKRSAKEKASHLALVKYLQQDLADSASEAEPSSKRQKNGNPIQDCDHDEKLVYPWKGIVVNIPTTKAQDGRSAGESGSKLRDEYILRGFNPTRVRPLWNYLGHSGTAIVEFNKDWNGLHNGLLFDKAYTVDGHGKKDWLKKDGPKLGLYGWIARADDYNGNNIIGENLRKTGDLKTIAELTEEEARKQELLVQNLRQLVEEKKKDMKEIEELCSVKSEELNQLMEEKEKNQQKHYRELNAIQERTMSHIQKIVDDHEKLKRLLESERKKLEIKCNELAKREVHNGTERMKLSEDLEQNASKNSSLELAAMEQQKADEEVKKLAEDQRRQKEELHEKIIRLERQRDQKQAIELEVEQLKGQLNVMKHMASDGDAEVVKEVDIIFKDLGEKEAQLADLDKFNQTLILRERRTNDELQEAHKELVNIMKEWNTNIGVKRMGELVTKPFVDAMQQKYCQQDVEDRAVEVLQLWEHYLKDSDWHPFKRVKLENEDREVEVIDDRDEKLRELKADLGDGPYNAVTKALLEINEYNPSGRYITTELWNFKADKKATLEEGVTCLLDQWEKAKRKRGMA

IDN2-a (XS+coiled-coil) = molecular target: T4, IDN2-a (XS+coiled-coil) (Arabidopsis thaliana, UniProt Q8VZ79 1-511); assay: as above; conditions: protein: recombinant, tags: His (pET30a), label: 5'-32P
T4 sequence: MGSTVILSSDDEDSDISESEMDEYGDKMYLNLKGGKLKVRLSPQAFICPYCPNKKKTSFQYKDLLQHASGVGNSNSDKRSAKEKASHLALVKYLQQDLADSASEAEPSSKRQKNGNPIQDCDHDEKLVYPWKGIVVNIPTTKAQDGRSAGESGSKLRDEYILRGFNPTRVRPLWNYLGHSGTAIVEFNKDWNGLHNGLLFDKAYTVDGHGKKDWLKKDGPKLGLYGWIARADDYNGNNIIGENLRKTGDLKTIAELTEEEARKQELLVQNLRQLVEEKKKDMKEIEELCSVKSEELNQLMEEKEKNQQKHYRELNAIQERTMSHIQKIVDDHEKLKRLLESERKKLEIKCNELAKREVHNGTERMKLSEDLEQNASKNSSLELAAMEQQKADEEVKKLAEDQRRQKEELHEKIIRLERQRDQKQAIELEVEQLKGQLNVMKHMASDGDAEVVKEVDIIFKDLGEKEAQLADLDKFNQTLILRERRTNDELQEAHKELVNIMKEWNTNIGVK

B1: RD29A dsRNA, 5' overhang (dsRNA)
RNA 1: ACGCUUCAUACGUGUCCCUUUAUCUCUCUCAGUCU
RNA 2: AGAGACUGAGAGAGAUAAAGGGACACGUAUGAAGC
IDP2; 5' overhangs 2 nt at both ends
  binding result: no binding
IDP1; 5' overhangs 2 nt at both ends
  binding result: no binding
IDN2; 5' overhangs 2 nt at both ends
  binding result: binds
IDN2-a (XS+coiled-coil); 5' overhangs 2 nt at both ends
  binding result: binds

B2: RD29A dsRNA, blunt (dsRNA)
RNA 1: ACGCUUCAUACGUGUCCCUUUAUCUCUCUCAGUCU
RNA 2: AGACUGAGAGAGAUAAAGGGACACGUAUGAAGCGU
IDP2; blunt
  binding result: no binding
IDP1; blunt
  binding result: no binding
IDN2; blunt
  binding result: binds
IDN2-a (XS+coiled-coil); blunt
  binding result: binds

From paper PMC3342958, “IDN2 and Its Paralogs Form a Complex Required for RNA–Directed DNA Methylation”
